Consider 9 substances from the supplement of paper PMC5998384.

In data set [1] the test system is HeLa Kyoto. As to the kind of experiment: solubility in G1/S (NP-40 vs SDS abundance) (log2 ratio); higher = more soluble. Particulars: cell cycle stage: G1/S.
In data set [2] the test system is HeLa Kyoto. As to the kind of experiment: melting temperature (median over replicates), in situ; higher = more thermally stable.
Data set [3] deals with HeLa Kyoto. In words: solubility change mitosis vs G1/S (difference of NP-40 vs SDS log2 ratios) (log2 ratio difference); higher = more soluble in mitosis.
Data set [4] has as its system HeLa Kyoto. In words: thermal stability score vs G1/S (z-score of summed log2 fold changes over temperatures); higher = more thermally stable than in G1/S.
The mark [5] stands for this setting: cell cycle stage: early G1 (4.5 h after nocodazole release).
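Throughout, for melting temperature (median over replicates), in situ: HeLa Kyoto cells synchronized by double thymidine or nocodazole block, proteins quantified by TMT10plex mass spectrometry, three independent biological replicates.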
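Throughout, for solubility change mitosis vs G1/S (difference of NP-40 vs SDS log2 ratios): synchronized HeLa Kyoto cells (double thymidine block for G1/S, nocodazole release for mitosis), protein amounts in NP-40 versus SDS lysates quantified by mass spectrometry, three biological replicates.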
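Throughout, for solubility in G1/S (NP-40 vs SDS abundance): HeLa Kyoto cells arrested at G1/S by double thymidine block, proteins quantified by TMT10plex mass spectrometry in mild NP-40 versus SDS extracts, three biological replicates.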
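Throughout, for thermal stability score vs G1/S (z-score of summed log2 fold changes over temperatures): synchronized HeLa Kyoto cells, proteins quantified by TMT10plex mass spectrometry, three biological replicates, mitosis taken 0.5 h after nocodazole release, G1/S directly after double thymidine block.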

Sequence of BRD2 (chain, as listed by the source): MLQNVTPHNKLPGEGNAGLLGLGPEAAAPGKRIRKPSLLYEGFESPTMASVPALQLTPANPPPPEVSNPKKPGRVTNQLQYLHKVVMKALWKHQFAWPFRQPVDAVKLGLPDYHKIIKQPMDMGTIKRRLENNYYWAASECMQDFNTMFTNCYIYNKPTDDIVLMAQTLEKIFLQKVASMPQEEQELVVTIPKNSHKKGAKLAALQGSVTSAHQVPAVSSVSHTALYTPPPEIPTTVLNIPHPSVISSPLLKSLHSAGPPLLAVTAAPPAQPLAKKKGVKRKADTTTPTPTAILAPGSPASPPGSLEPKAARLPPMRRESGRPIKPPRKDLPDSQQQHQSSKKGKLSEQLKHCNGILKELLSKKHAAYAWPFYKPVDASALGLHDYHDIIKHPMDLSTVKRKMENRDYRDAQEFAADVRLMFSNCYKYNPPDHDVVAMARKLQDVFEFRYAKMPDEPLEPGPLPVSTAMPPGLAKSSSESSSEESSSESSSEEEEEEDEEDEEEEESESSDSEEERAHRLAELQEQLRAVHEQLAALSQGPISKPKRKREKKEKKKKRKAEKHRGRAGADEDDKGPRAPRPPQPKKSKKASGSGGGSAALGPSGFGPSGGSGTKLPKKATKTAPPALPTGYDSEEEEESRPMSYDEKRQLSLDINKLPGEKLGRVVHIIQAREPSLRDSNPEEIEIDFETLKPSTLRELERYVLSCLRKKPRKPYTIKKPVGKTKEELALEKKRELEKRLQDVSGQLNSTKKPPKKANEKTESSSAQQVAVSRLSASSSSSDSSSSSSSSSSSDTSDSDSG

For “MPCGEDWLSHPLGIVQGFFAQNGVNPDWEKKVIEYFKEKLKENNAPKWVPSLNEVPLHYLKPNSFVKFRCMIQDMFDPEFYMGVYETVNQNTKAHVLHFGKYRDVAECGPQQELDLNSPRNTTLERQTFYCVPVPGESTWVKEAYVNANQARVSPSTSYTPSRHKRSYEDDDDMDLQPNKQKDQHAGARQAGSVGGLQWCGEPKRLETEASTGQQLNSLNLSSPFDLNFPLPGEKGPACLVKVYEDWDCFKVNDILELYGILSVDPVLSILNNDERDASALLDPMECTDTAEEQRVHSPPASLVPRIHVILAQKLQHINPLLPACLNKEESKTCKFVSSFMSELSPVRAELLGFLTHALLGDSLAAEYLILHLISTVYTRRDVLPLGKFTVNLSGCPRNSTFTEHLYRIIQHLVPASFRLQMTIENMNHLKFIPHKDYTANRLVSGLLQLPSNTSLVIDETLLEQGQLDTPGVHNVTALSNLITWQKVDYDFSYHQMEFPCNINVFITSEGRSLLPADCQIHLQPQLIPPNMEEYMNSLLSAVLPSVLNKFRIYLTLLRFLEYSISDEITKAVEDDFVEMRKNDPQSITADDLHQLLVVARCLSLSAGQTTLSRERWLRAKQLESLRRTRLQQQKCVNGNEL [MCMBP]”, the “solubility in G1/S (log2)” value in data set [1] was 0.324. Further, the figures for the melting temperature in data set [2] (cell cycle stage: G1/S) and in data set [2] (cell cycle stage: mitosis) were 49.2 °C and 50.1 °C, respectively. In addition, the “solubility change mitosis (log2)” value in data set [3] was -0.11. Moreover, the thermal stability score in data set [4] (setting [5]) came to 0.0238; in data set [4] (cell cycle stage: mitosis) it was 2.25.

On to “MAASVEQREGTIQVQGQALFFREALPGSGQARFSVLLLHGIRFSSETWQNLGTLHRLAQAGYRAVAIDLPGLGHSKEAAAPAPIGELAPGSFLAAVVDALELGPPVVISPSLSGMYSLPFLTAPGSQLPGFVPVAPICTDKINAANYASVKTPALIVYGDQDPMGQTSFEHLKQLPNHRVLIMKGAGHPCYLDKPEEWHTGLLDFLQGLQ [ABHD14B]”, for which, in data set [1], the “solubility in G1/S (log2)” value was 0.421. Also, the melting temperature is 52.9 °C in data set [2] (cell cycle stage: G1/S) and 52.7 °C in data set [2] (cell cycle stage: mitosis). Besides, the “solubility change mitosis (log2)” value in data set [3] is -0.165. Moreover, the thermal stability score in data set [4] (setting [5]) was -0.635; in data set [4] (cell cycle stage: mitosis) it was -1.1.

As for “MGFLKLIEIENFKSYKGRQIIGPFQRFTAIIGPNGSGKSNLMDAISFVLGEKTSNLRVKTLRDLIHGAPVGKPAANRAFVSMVYSEEGAEDRTFARVIVGGSSEYKINNKVVQLHEYSEELEKLGILIKARNFLVFQGAVESIAMKNPKERTALFEEISRSGELAQEYDKRKKEMVKAEEDTQFNYHRKKNIAAERKEAKQEKEEADRYQRLKDEVVRAQVQLQLFKLYHNEVEIEKLNKELASKNKEIEKDKKRMDKVEDELKEKKKELGKMMREQQQIEKEIKEKDSELNQKRPQYIKAKENTSHKIKKLEAAKKSLQNAQKHYKKRKGDMDELEKEMLSVEKARQEFEERMEEESQSQGRDLTLEENQVKKYHRLKEEASKRAATLAQELEKFNRDQKADQDRLDLEERKKVETEAKIKQKLREIEENQKRIEKLEEYITTSKQSLEEQKKLEGELTEEVEMAKRRIDEINKELNQVMEQLGDARIDRQESSRQQRKAEIMESIKRLYPGSVYGRLIDLCQPTQKKYQIAVTKVLGKNMDAIIVDSEKTGRDCIQYIKEQRGEPETFLPLDYLEVKPTDEKLRELKGAKLVIDVIRYEPPHIKKALQYACGNALVCDNVEDARRIAFGGHQRHKTVALDGTLFQKSGVISGGASDLKAKARRWDEKAVDKLKEKKERLTEELKEQMKAKRKEAELRQVQSQAHGLQMRLKYSQSDLEQTKTRHLALNLQEKSKLESELANFGPRINDIKRIIQSREREMKDLKEKMNQVEDEVFEEFCREIGVRNIREFEEEKVKRQNEIAKKRLEFENQKTRLGIQLDFEKNQLKEDQDKVHMWEQTVKKDENEIEKLKKEEQRHMKIIDETMAQLQDLKNQHLAKKSEVNDKNHEMEEIRKKLGGANKEMTHLQKEVTAIETKLEQKRSDRHNLLQACKMQDIKLPLSKGTMDDISQEEGSSQGEDSVSGSQRISSIYAREALIEIDYGDLCEDLKDAQAEEEIKQEMNTLQQKLNEQQSVLQRIAAPNMKAMEKLESVRDKFQETSDEFEAARKRAKKAKQAFEQIKKERFDRFNACFESVATNIDEIYKALSRNSSAQAFLGPENPEEPYLDGINYNCVAPGKRFRPMDNLSGGEKTVAALALLFAIHSYKPAPFFVLDEIDAALDNTNIGKVANYIKEQSTCNFQAIVISLKEEFYTKAESLIGVYPEQGDCVISKVLTFDLTKYPDANPNPNEQ [SMC1A]”, the “solubility in G1/S (log2)” value in data set [1] was -0.302. The melting temperature in data set [2] (cell cycle stage: G1/S) was 51.9 °C; in data set [2] (cell cycle stage: mitosis), 51.3 °C. In addition, the “solubility change mitosis (log2)” value in data set [3] turned out to be 0.0456. Further, the thermal stability score was -0.868 in data set [4] (setting [5]) and -1.79 in data set [4] (cell cycle stage: mitosis).

Take BRD2: the “solubility in G1/S (log2)” value in data set [1] is -0.0635. In addition, the results for the melting temperature in data set [2] (cell cycle stage: G1/S) and in data set [2] (cell cycle stage: mitosis) were 47.9 °C and 49.1 °C, respectively. Further, in data set [3], the “solubility change mitosis (log2)” value is 0.202. The thermal stability score in data set [4] (setting [5]) was found to be 0.901; in data set [4] (cell cycle stage: mitosis), 2.29.

For TPM4, in data set [1], the “solubility in G1/S (log2)” value came out at 0.907. Also, the melting temperature in data set [2] (cell cycle stage: G1/S) was 55.8 °C. Further, the “solubility change mitosis (log2)” value in data set [3] amounted to 0.532. Besides, the results for the thermal stability score in data set [4] (setting [5]) and in data set [4] (cell cycle stage: mitosis) were -0.98 and -3.48, respectively.

Turning to TACC2, in data set [1], the “solubility in G1/S (log2)” value was 0.219. Also, the melting temperature in data set [2] (cell cycle stage: G1/S) worked out at 54.3 °C; in data set [2] (cell cycle stage: mitosis), 53.8 °C. Besides, the “solubility change mitosis (log2)” value in data set [3] was -0.0921. Besides, the thermal stability score in data set [4] (setting [5]) is -1.3; in data set [4] (cell cycle stage: mitosis) it was 1.83.

On to “MAASGKLSTCRLPPLPTIREIIKLLRLQAAKQLSQNFLLDLRLTDKIVRKAGNLTNAYVYEVGPGPGGITRSILNADVAELLVVEKDTRFIPGLQMLSDAAPGKLRIVHGDVLTFKVEKAFSESLKRPWEDDPPNVHIIGNLPFSVSTPLIIKWLENISCRDGPFVYGRTQMTLTFQKEVAERLAANTGSKQRSRLSVMAQYLCNVRHIFTIPGQAFVPKPEVDVGVVHFTPLIQPKIEQPFKLVEKVVQNVFQFRRKYCHRGLRMLFPEAQRLESTGRLLELADIDPTLRPRQLSISHFKSLCDVYRKMCDEDPQLFAYNFREELKRRKSKNEEKEEDDAENYRL [TFB1M]”, for which the “solubility in G1/S (log2)” value in data set [1] was -0.318. The melting temperature in data set [2] (cell cycle stage: G1/S) turned out to be 51.7 °C; in data set [2] (cell cycle stage: mitosis), 51.4 °C. In addition, the “solubility change mitosis (log2)” value in data set [3] worked out at 0.122. Further, the figures for the thermal stability score in data set [4] (setting [5]) and in data set [4] (cell cycle stage: mitosis) were 0.388 and 0.452, respectively.

As for “MKEEVKGIPVRVALRCRPLVPKEISEGCQMCLSFVPGEPQVVVGTDKSFTYDFVFDPSTEQEEVFNTAVAPLIKGVFKGYNATVLAYGQTGSGKTYSMGGAYTAEQENEPTVGVIPRVIQLLFKEIDKKSDFEFTLKVSYLEIYNEEILDLLCPSREKAQINIREDPKEGIKIVGLTEKTVLVALDTVSCLEQGNNSRTVASTAMNSQSSRSHAIFTISLEQRKKSDKNSSFRSKLHLVDLAGSERQKKTKAEGDRLKEGININRGLLCLGNVISALGDDKKGGFVPYRDSKLTRLLQDSLGGNSHTLMIACVSPADSNLEETLNTLRYADRARKIKNKPIVNIDPQTAELNHLKQQVQQLQVLLLQAHGGTLPGSITVEPSENLQSLMEKNQSLVEENEKLSRGLSEAAGQTAQMLERIILTEQANEKMNAKLEELRQHAACKLDLQKLVETLEDQELKENVEIICNLQQLITQLSDETVACMAAAIDTAVEQEAQVETSPETSRSSDAFTTQHALRQAQMSKELVELNKALALKEALARKMTQNDSQLQPIQYQYQDNIKELELEVINLQKEKEELVLELQTAKKDANQAKLSERRRKRLQELEGQIADLKKKLNEQSKLLKLKESTERTVSKLNQEIRMMKNQRVQLMRQMKEDAEKFRQWKQKKDKEVIQLKERDRKRQYELLKLERNFQKQSNVLRRKTEEAAAANKRLKDALQKQREVADKRKETQSRGMEGTAARVKNWLGNEIEVMVSTEEAKRHLNDLLEDRKILAQDVAQLKEKKESGENPPPKLRRRTFSLTEVRGQVSESEDSITKQIESLETEMEFRSAQIADLQQKLLDAESEDRPKQRWENIATILEAKCALKYLIGELVSSKIQVSKLESSLKQSKTSCADMQKMLFEERNHFAEIETELQAELVRMEQQHQEKVLYLLSQLQQSQMAEKQLEESVSEKEQQLLSTLKCQDEELEKMREVCEQNQQLLRENEIIKQKLTLLQVASRQKHLPKDTLLSPDSSFEYVPPKPKPSRVKEKFLEQSMDIEDLKYCSEHSVNEHEDGDGDDDEGDDEEWKPTKLVKVSRKNIQGCSCKGWCGNKQCGCRKQKSDCGVDCCCDPTKCRNRQQGKDSLGTVERTQDSEGSFKLEDPTEVTPGLSFFNPVCATPNSKILKEMCDVEQVLSKKTPPAPSPFDLPELKHVATEYQENKAPGKKKKRALASNTSFFSGCSPIEEEAH [KIF4A]”, the “solubility in G1/S (log2)” value in data set [1] worked out at 0.00342. For the same substance, the melting temperature in data set [2] (cell cycle stage: G1/S) was determined as 45.7 °C; in data set [2] (cell cycle stage: mitosis), 48.8 °C. Besides, the “solubility change mitosis (log2)” value in data set [3] is 0.00592. Also, the thermal stability score in data set [4] (setting [5]) turned out to be 4.91; in data set [4] (cell cycle stage: mitosis), 8.64.

Consider “MGMWASLDALWEMPAEKRIFGAVLLFSWTVYLWETFLAQRQRRIYKTTTHVPPELGQIMDSETFEKSRLYQLDKSTFSFWSGLYSETEGTLILLFGGIPYLWRLSGRFCGYAGFGPEYEITQSLVFLLLATLFSALTGLPWSLYNTFVIEEKHGFNQQTLGFFMKDAIKKFVVTQCILLPVSSLLLYIIKIGGDYFFIYAWLFTLVVSLVLVTIYADYIAPLFDKFTPLPEGKLKEEIEVMAKSIDFPLTKVYVVEGSKRSSHSNAYFYGFFKNKRIVLFDTLLEEYSVLNKDIQEDSGMEPRNEEEGNSEEIKAKVKNKKQGCKNEEVLAVLGHELGHWKLGHTVKNIIISQMNSFLCFFLFAVLIGRKELFAAFGFYDSQPTLIGLLIIFQFIFSPYNEVLSFCLTVLSRRFEFQADAFAKKLGKAKDLYSALIKLNKDNLGFPVSDWLFSMWHYSHPPLLERLQALKTMKQH [ZMPSTE24]”, for which the “solubility in G1/S (log2)” value in data set [1] was -0.147. In addition, the melting temperature worked out at 55.2 °C in data set [2] (cell cycle stage: G1/S) and 54.4 °C in data set [2] (cell cycle stage: mitosis). Also, in data set [3], the “solubility change mitosis (log2)” value was -0.171. Further, the figures for the thermal stability score in data set [4] (setting [5]) and in data set [4] (cell cycle stage: mitosis) were -0.261 and -0.906, respectively.
